Each block holds one binder with its values, some of them ahead of it. Numbered stars: 1 amine (or outer) side, 2 acyl side, 3 side chain; on linkers, the order of the positions; unused ones are H or OH. Bridge positions count the residues as written; N and C are the ends. Side chains are listed from the residue outwards. Ends that are not written are not given here. * marks the point of attachment. C20 diacid = O=C(O)CCCCCCCCCCCCCCCCCCC(=O)*; γGlu = O=C(O)[C@H](CCC(=O)[*:2])N[*:1]
Key:
[1] = target: T1, human amylin 3(a) receptor (human calcitonin receptor plus RAMP-3) (human, UniProt P30988 25-474; O60896 24-148, limits assumed); test: cell-based or functional assay
T1 sequence (looked up) 1: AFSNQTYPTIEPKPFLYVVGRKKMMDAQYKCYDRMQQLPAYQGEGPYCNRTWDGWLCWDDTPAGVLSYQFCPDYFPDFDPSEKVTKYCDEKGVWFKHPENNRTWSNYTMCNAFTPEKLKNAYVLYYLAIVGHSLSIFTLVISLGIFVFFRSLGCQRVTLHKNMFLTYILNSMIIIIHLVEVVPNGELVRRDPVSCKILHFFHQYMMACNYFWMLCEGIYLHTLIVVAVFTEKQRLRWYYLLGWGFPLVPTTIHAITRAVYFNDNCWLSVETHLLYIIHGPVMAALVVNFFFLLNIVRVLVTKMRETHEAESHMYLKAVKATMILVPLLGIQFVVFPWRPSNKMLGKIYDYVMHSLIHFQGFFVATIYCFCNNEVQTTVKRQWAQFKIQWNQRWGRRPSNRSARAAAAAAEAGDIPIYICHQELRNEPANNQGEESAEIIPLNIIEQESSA
T1 sequence (looked up) 2: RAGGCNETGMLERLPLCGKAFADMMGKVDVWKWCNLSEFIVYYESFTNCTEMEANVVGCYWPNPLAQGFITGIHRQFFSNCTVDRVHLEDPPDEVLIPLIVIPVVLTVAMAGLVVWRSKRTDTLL

[2] = target: T2, human calcitonin receptor (human, UniProt P30988 25-474); test: cell-based or functional assay
T2 sequence (looked up): T1 sequence (looked up) 1

[3] = target: T1, human amylin 3(a) receptor (human …); test: SPA competition binding, displacement of 125I-rat amylin from membranes of Amylin 3(a)/CRE-luc BHK cells (Assay V)
Method in brief: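 One-site competition analysis of SPA counts yielded IC₅₀ as a measure of affinity. Membranes were at 35 ng/μL final; incubation was 120 min at 25° C, pH 7.4.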

- Ratio hCT/hAmylin funct. [1]: 8.9
- hAmylin-R funct. EC50 [1]: 0.386 nM
- hCTR funct. EC50 [2]: 3.43 nM
- IC50 [3]: 0.597 nM
B1: N^α1 N^α1-[(4S)-4-carboxy-4-[[(4S)-4-carboxy-4-(19-carboxynonadecanoylamino)butanoyl]amino]butanoyl]-[Glu14,Arg17,Pro21,Pro27]-h-amylin (peptide)
peptide: {C20 diacid-γGlu-γGlu}-KCNTATCATQRLAEFLRHSSPNFGAIPSSTNVGSNTY-NH2
modifications: disulfide 2-7
SMILES: CC[C@H](C)[C@H](NC(=O)[C@H](C)NC(=O)CNC(=O)[C@H](Cc1ccccc1)NC(=O)[C@H](CC(N)=O)NC(=O)[C@@H]1CCCN1C(=O)[C@H](CO)NC(=O)[C@H](CO)NC(=O)[C@H](Cc1c[nH]cn1)NC(=O)[C@H](CCCNC(=N)N)NC(=O)[C@H](CC(C)C)NC(=O)[C@H](Cc1ccccc1)NC(=O)[C@H](CCC(=O)O)NC(=O)[C@H](C)NC(=O)[C@H](CC(C)C)NC(=O)[C@H](CCCNC(=N)N)NC(=O)[C@H](CCC(N)=O)NC(=O)[C@@H](NC(=O)[C@H](C)NC(=O)[C@@H]1CSSC[C@H](NC(=O)[C@H](CCCCN)NC(=O)CC[C@H](NC(=O)CC[C@H](NC(=O)CCCCCCCCCCCCCCCCCCC(=O)O)C(=O)O)C(=O)O)C(=O)N[C@@H](CC(N)=O)C(=O)N[C@@H]([C@@H](C)O)C(=O)N[C@@H](C)C(=O)N[C@@H]([C@@H](C)O)C(=O)N1)[C@@H](C)O)C(=O)N1CCC[C@H]1C(=O)N[C@@H](CO)C(=O)N[C@@H](CO)C(=O)N[C@H](C(=O)N[C@@H](CC(N)=O)C(=O)N[C@H](C(=O)NCC(=O)N[C@@H](CO)C(=O)N[C@@H](CC(N)=O)C(=O)N[C@H](C(=O)N[C@@H](Cc1ccc(O)cc1)C(N)=O)[C@@H](C)O)C(C)C)[C@@H](C)O
notes: also called compound 15

- hAmylin-R funct. EC50 [1]: 0.278 nM
- hCTR funct. EC50 [2]: 8.16 nM
- IC50 [3]: 0.326 nM
B2: N^ε1-[(4S)-4-carboxy-4-[[(4S)-4-carboxy-4-(19-carboxynonadecanoylamino)butanoyl]amino]butanoyl]-[Glu14,Arg17,Pro21,Pro27,Pro34,Arg35]-h-amylin (peptide)
peptide: K([γGlu-γGlu-C20 diacid])CNTATCATQRLAEFLRHSSPNFGAIPSSTNVGPRTY-NH2
modifications: disulfide 2-7; N-terminus assumed
SMILES: CC[C@H](C)[C@H](NC(=O)[C@H](C)NC(=O)CNC(=O)[C@H](Cc1ccccc1)NC(=O)[C@H](CC(N)=O)NC(=O)[C@@H]1CCCN1C(=O)[C@H](CO)NC(=O)[C@H](CO)NC(=O)[C@H](Cc1c[nH]cn1)NC(=O)[C@H](CCCNC(=N)N)NC(=O)[C@H](CC(C)C)NC(=O)[C@H](Cc1ccccc1)NC(=O)[C@H](CCC(=O)O)NC(=O)[C@H](C)NC(=O)[C@H](CC(C)C)NC(=O)[C@H](CCCNC(=N)N)NC(=O)[C@H](CCC(N)=O)NC(=O)[C@@H](NC(=O)[C@H](C)NC(=O)[C@@H]1CSSC[C@H](NC(=O)[C@@H](N)CCCCNC(=O)CC[C@H](NC(=O)CC[C@H](NC(=O)CCCCCCCCCCCCCCCCCCC(=O)O)C(=O)O)C(=O)O)C(=O)N[C@@H](CC(N)=O)C(=O)N[C@@H]([C@@H](C)O)C(=O)N[C@@H](C)C(=O)N[C@@H]([C@@H](C)O)C(=O)N1)[C@@H](C)O)C(=O)N1CCC[C@H]1C(=O)N[C@@H](CO)C(=O)N[C@@H](CO)C(=O)N[C@H](C(=O)N[C@@H](CC(N)=O)C(=O)N[C@H](C(=O)NCC(=O)N1CCC[C@H]1C(=O)N[C@@H](CCCNC(=N)N)C(=O)N[C@H](C(=O)N[C@@H](Cc1ccc(O)cc1)C(N)=O)[C@@H](C)O)C(C)C)[C@@H](C)O
notes: also called compound 110

- Ratio hCT/hAmylin funct. [1]: 6.8
- hAmylin-R funct. EC50 [1]: 0.189 nM
- hCTR funct. EC50 [2]: 1.28 nM
- IC50 [3]: 0.403 nM
B3: N{Alpha-1}-[(4S)-4-carboxy-4-(19-carboxynonadecanoylamino)butanoyl]-[Glu14,Arg17,Pro21,Pro27,Lys34]-h-amylin (peptide)
peptide: {C20 diacid-γGlu}-KCNTATCATQRLAEFLRHSSPNFGAIPSSTNVGKNTY-NH2
modifications: disulfide 2-7
SMILES: CC[C@H](C)[C@H](NC(=O)[C@H](C)NC(=O)CNC(=O)[C@H](Cc1ccccc1)NC(=O)[C@H](CC(N)=O)NC(=O)[C@@H]1CCCN1C(=O)[C@H](CO)NC(=O)[C@H](CO)NC(=O)[C@H](Cc1c[nH]cn1)NC(=O)[C@H](CCCNC(=N)N)NC(=O)[C@H](CC(C)C)NC(=O)[C@H](Cc1ccccc1)NC(=O)[C@H](CCC(=O)O)NC(=O)[C@H](C)NC(=O)[C@H](CC(C)C)NC(=O)[C@H](CCCNC(=N)N)NC(=O)[C@H](CCC(N)=O)NC(=O)[C@@H](NC(=O)[C@H](C)NC(=O)[C@@H]1CSSC[C@H](NC(=O)[C@H](CCCCN)NC(=O)CC[C@H](NC(=O)CCCCCCCCCCCCCCCCCCC(=O)O)C(=O)O)C(=O)N[C@@H](CC(N)=O)C(=O)N[C@@H]([C@@H](C)O)C(=O)N[C@@H](C)C(=O)N[C@@H]([C@@H](C)O)C(=O)N1)[C@@H](C)O)C(=O)N1CCC[C@H]1C(=O)N[C@@H](CO)C(=O)N[C@@H](CO)C(=O)N[C@H](C(=O)N[C@@H](CC(N)=O)C(=O)N[C@H](C(=O)NCC(=O)N[C@@H](CCCCN)C(=O)N[C@@H](CC(N)=O)C(=O)N[C@H](C(=O)N[C@@H](Cc1ccc(O)cc1)C(N)=O)[C@@H](C)O)C(C)C)[C@@H](C)O
notes: also called compound 36

- Ratio hCT/hAmylin funct. [1]: 2.2
- hAmylin-R funct. EC50 [1]: 0.213 nM
- hCTR funct. EC50 [2]: 0.47 nM
- IC50 [3]: 0.264 nM
B4: N^ε1-[(4S)-4-carboxy-4-[[(4S)-4-carboxy-4-(19-carboxynonadecanoylamino)butanoyl]amino]butanoyl]-[Glu14,Arg17,Pro21,Pro27,Pro37]-h-amylin (peptide)
peptide: K([γGlu-γGlu-C20 diacid])CNTATCATQRLAEFLRHSSPNFGAIPSSTNVGSNTP-NH2
modifications: disulfide 2-7 (inferred)
notes: also called compound 13

- hAmylin-R funct. EC50 [1]: 0.172 nM
- hCTR funct. EC50 [2]: 2.83 nM
- IC50 [3]: 0.377 nM
B5: N^ε1-[(4S)-4-carboxy-4-[[(4S)-4-carboxy-4-(19-carboxynonadecanoylamino)butanoyl]amino]butanoyl]-[Glu14,Arg17,Pro21,Pro27,Pro34,His35]-h-amylin (peptide)
peptide: K([γGlu-γGlu-C20 diacid])CNTATCATQRLAEFLRHSSPNFGAIPSSTNVGPHTY-NH2
modifications: disulfide 2-7 (inferred)

- Ratio hCT/hAmylin funct. [1]: 5.8
- hAmylin-R funct. EC50 [1]: 0.222 nM
- hCTR funct. EC50 [2]: 1.28 nM
- IC50 [3]: 0.069 nM
B6: N^ε1-[(4S)-4-carboxy-4-[[(4S)-4-carboxy-4-(19-carboxynonadecanoylamino)butanoyl]amino]butanoyl]-[Glu14,Arg17,Pro21,Pro31,Pro34,Glu35]-h-amylin (peptide)
peptide: K([γGlu-γGlu-C20 diacid])CNTATCATQRLAEFLRHSSPNFGAILSSTPVGPETY-NH2
modifications: disulfide 2-7 (inferred)

- hAmylin-R funct. EC50 [1]: 0.225 nM
- hCTR funct. EC50 [2]: 2.36 nM
- IC50 [3]: 0.121 nM
B7: N^ε1-[(4S)-4-carboxy-4-[[(4S)-4-carboxy-4-(19-carboxynonadecanoylamino)butanoyl]amino]butanoyl]-[Glu14,Arg17,Pro21,Pro27,Pro34,Glu35]-h-amylin (peptide)
peptide: K([γGlu-γGlu-C20 diacid])CNTATCATQRLAEFLRHSSPNFGAIPSSTNVGPETY-NH2
modifications: disulfide 2-7; N-terminus assumed
SMILES: CC[C@H](C)[C@H](NC(=O)[C@H](C)NC(=O)CNC(=O)[C@H](Cc1ccccc1)NC(=O)[C@H](CC(N)=O)NC(=O)[C@@H]1CCCN1C(=O)[C@H](CO)NC(=O)[C@H](CO)NC(=O)[C@H](Cc1c[nH]cn1)NC(=O)[C@H](CCCNC(=N)N)NC(=O)[C@H](CC(C)C)NC(=O)[C@H](Cc1ccccc1)NC(=O)[C@H](CCC(=O)O)NC(=O)[C@H](C)NC(=O)[C@H](CC(C)C)NC(=O)[C@H](CCCNC(=N)N)NC(=O)[C@H](CCC(N)=O)NC(=O)[C@@H](NC(=O)[C@H](C)NC(=O)[C@@H]1CSSC[C@H](NC(=O)[C@@H](N)CCCCNC(=O)CC[C@H](NC(=O)CC[C@H](NC(=O)CCCCCCCCCCCCCCCCCCC(=O)O)C(=O)O)C(=O)O)C(=O)N[C@@H](CC(N)=O)C(=O)N[C@@H]([C@@H](C)O)C(=O)N[C@@H](C)C(=O)N[C@@H]([C@@H](C)O)C(=O)N1)[C@@H](C)O)C(=O)N1CCC[C@H]1C(=O)N[C@@H](CO)C(=O)N[C@@H](CO)C(=O)N[C@H](C(=O)N[C@@H](CC(N)=O)C(=O)N[C@H](C(=O)NCC(=O)N1CCC[C@H]1C(=O)N[C@@H](CCC(=O)O)C(=O)N[C@H](C(=O)N[C@@H](Cc1ccc(O)cc1)C(N)=O)[C@@H](C)O)C(C)C)[C@@H](C)O

- Ratio hCT/hAmylin funct. [1]: 1.8
- hAmylin-R funct. EC50 [1]: 0.101 nM
- hCTR funct. EC50 [2]: 0.185 nM
- IC50 [3]: 0.142 nM
B8: N^ε1-[(4S)--4-carboxy-4-(19-carboxynonadecanoylamino)butanoyl]-[Glu14,Arg17,Pro21,Pro27,Pro37]-h-amylin (peptide)
peptide: K([γGlu-C20 diacid])CNTATCATQRLAEFLRHSSPNFGAIPSSTNVGSNTP-NH2
modifications: disulfide 2-7; N-terminus assumed
SMILES: CC[C@H](C)[C@H](NC(=O)[C@H](C)NC(=O)CNC(=O)[C@H](Cc1ccccc1)NC(=O)[C@H](CC(N)=O)NC(=O)[C@@H]1CCCN1C(=O)[C@H](CO)NC(=O)[C@H](CO)NC(=O)[C@H](Cc1c[nH]cn1)NC(=O)[C@H](CCCNC(=N)N)NC(=O)[C@H](CC(C)C)NC(=O)[C@H](Cc1ccccc1)NC(=O)[C@H](CCC(=O)O)NC(=O)[C@H](C)NC(=O)[C@H](CC(C)C)NC(=O)[C@H](CCCNC(=N)N)NC(=O)[C@H](CCC(N)=O)NC(=O)[C@@H](NC(=O)[C@H](C)NC(=O)[C@@H]1CSSC[C@H](NC(=O)[C@@H](N)CCCCNC(=O)CC[C@H](NC(=O)CCCCCCCCCCCCCCCCCCC(=O)O)C(=O)O)C(=O)N[C@@H](CC(N)=O)C(=O)N[C@@H]([C@@H](C)O)C(=O)N[C@@H](C)C(=O)N[C@@H]([C@@H](C)O)C(=O)N1)[C@@H](C)O)C(=O)N1CCC[C@H]1C(=O)N[C@@H](CO)C(=O)N[C@@H](CO)C(=O)N[C@H](C(=O)N[C@@H](CC(N)=O)C(=O)N[C@H](C(=O)NCC(=O)N[C@@H](CO)C(=O)N[C@@H](CC(N)=O)C(=O)N[C@H](C(=O)N1CCC[C@H]1C(N)=O)[C@@H](C)O)C(C)C)[C@@H](C)O
notes: also called compound 12

- Ratio hCT/hAmylin funct. [1]: 17.4
- hAmylin-R funct. EC50 [1]: 0.307 nM
- hCTR funct. EC50 [2]: 5.32 nM
- IC50 [3]: 0.556 nM
B9: N^α1-[2-[2-[2-[[2-[2-[2-[[(4S)-4-carboxy-4-(19-carboxynonadecanoylamino)butanoyl]amino]ethoxy]ethoxy]acetyl]amino]ethoxy]ethoxy]acetyl]-[Glu14,Arg17,Pro21,Pro27 … (peptide)
peptide: KCNTATCATQRLAEFLRHSSPNFGAIPSSTNVGSNTY
modifications: C20 diacid-gGlu-2xOEG on the alpha amino group of the N-terminal residue (position 1); disulfide bridge Cys2-Cys7; C-terminal amide
notes: also called compound 19

Reference: patent publication US20140087995A1 (published 2014)
